According to patent US20090118165A1 (CASE WESTERN RESERVE UNIVERSITY, published 2009):
Where no end group is shown, it is not given here. The star is where a group is joined. Biotin = O=C1N[C@H]2[C@H](CS[C@H]2CCCCC(=O)*)N1

Molecular target: T1, Bax (endogenous, in lysate of human Dami megakaryocytic cells) (human, UniProt Q07812 1-192, limits assumed)
T1 construct: Endogenous protein in a cell lysate
Assay: pull-down of biotin-labeled peptide with streptavidin beads from Dami cell lysate, Western blot with anti-Bax antibody
Description: FIG. 1 illustrates Western Blots of Dami cell lysates incubated in the absence or presence of 200 μM biotin-labeled peptides. The peptides were: KLPVM (SEQ ID NO:8) (scrambled negative control), VPMLK (SEQ ID NO:2) (human version), VPTLK (SEQ ID NO:5) (mouse version), and VPALR (SEQ ID NO:6) (rat version). Immuno-precipitation was performed with streptavidin beads. Western blot analysis of immune precipitated samples were performed with anti-Bax polyclonal antibody.
Co-precipitation was performed as previously described (Yoshida, T., et al., Bax-inhibiting peptide derived from mouse and rat Ku70. Biochem Biophys Res Commun, 2004. 321(4): p. 961-6). […] After the precleaning of 200 μl of sample with 20 μl of streptavidin beads (Amersham-Pharmacia Biotech) at 4° C. for 1 h, the samples were incubated with 200 μM of various biotin-labeled peptides (biotin-KLPVM (SEQ ID NO:8), VPMLK (SEQ ID NO:2), VPTLK (SEQ ID NO:5) or VPALR (SEQ ID NO:6) for 2 h. Streptavidin beads (20 μl) were added to the samples and the mixtures were incubated at 4° C. After 2 h of incubation, the beads were washed with 100 μl of Chaps buffer 3 times by centrifugation (1000 rpm, at 4° C., 15 sec). The beads were boiled in 40 μl of Laemmli buffer and the eluted proteins (20 μl) were analyzed by Western blotting with anti-human Bax polyclonal antibody (BD-Pharmingen). […]

T1 sequence (Q07812 whole entry): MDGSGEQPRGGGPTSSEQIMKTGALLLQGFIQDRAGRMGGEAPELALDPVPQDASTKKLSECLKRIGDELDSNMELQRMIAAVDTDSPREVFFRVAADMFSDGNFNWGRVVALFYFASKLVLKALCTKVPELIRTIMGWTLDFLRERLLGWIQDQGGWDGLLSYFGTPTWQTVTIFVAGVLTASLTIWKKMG

B1: biotin-KLPVM (SEQ ID NO:8), scrambled negative control peptide (peptide)
peptide: Biotin-KLPVM
notes: Synthetic scrambled control peptide, biotin-labeled, used at 200 uM in Dami cell lysate
binding result: no binding (tested: 200 µM)
